Reference: patent US20170152299A1 (GUANGZHOU SHENGLU BIOTECH, published 2017)

T1: FGF7 (UniProt P21781 32-194)
T1 construct: Bought reagent; also called KGF
T1 sequence (looked up): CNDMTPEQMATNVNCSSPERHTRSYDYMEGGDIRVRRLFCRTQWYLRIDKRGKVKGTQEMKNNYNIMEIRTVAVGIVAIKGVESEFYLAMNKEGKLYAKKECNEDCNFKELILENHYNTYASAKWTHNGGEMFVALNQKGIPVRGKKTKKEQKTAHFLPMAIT

B1: truncated protein of the wild-type FGFR2b extracellular fragment (SEQ ID NO: 8) (receptor)
chain: KRAPYWTNTEKMEKRLHAVPAANTVKFRCPAGGNPMPTMRWLKNGKEFKQEHRIGGYKVRNQHWSLIMESVVPSDKGNYTCVVENEYGSINHTYHLDVVERSPHRPILQAGLPANASTVVGGDVEFVCKVYSDAQPHIQWIKHVEKNGSKYGPDGLPYLKVLKHSGINSSNAEVLALFNVTEADAGEYICKVSNYIGQANQSAWLTVLPKQQAPGR
notes: also called truncated FGFR2b extracellular fragment, wild type
B2: truncated protein of S252W mutant-type FGFR2b extracellular fragment (SEQ ID NO: 10) (receptor)
chain: KRAPYWTNTEKMEKRLHAVPAANTVKFRCPAGGNPMPTMRWLKNGKEFKQEHRIGGYKVRNQHWSLIMESVVPSDKGNYTCVVENEYGSINHTYHLDVVERWPHRPILQAGLPANASTVVGGDVEFVCKVYSDAQPHIQWIKHVEKNGSKYGPDGLPYLKVLKHSGINSSNAEVLALFNVTEADAGEYICKVSNYIGQANQSAWLTVLPKQQAPGR
notes: also called truncated FGFR2b extracellular fragment, S252W mutant type
B3: truncated protein of P253R mutant-type FGFR2b extracellular fragment (SEQ ID NO: 12) (receptor)
chain: KRAPYWTNTEKMEKRLHAVPAANTVKFRCPAGGNPMPTMRWLKNGKEFKQEHRIGGYKVRNQHWSLIMESVVPSDKGNYTCVVENEYGSINHTYHLDVVERSRHRPILQAGLPANASTVVGGDVEFVCKVYSDAQPHIQWIKHVEKNGSKYGPDGLPYLKVLKHSGINSSNAEVLALFNVTEADAGEYICKVSNYIGQANQSAWLTVLPKQQAPGR
notes: also called truncated FGFR2b extracellular fragment, P253R mutant type

These binders were tested against T1, FGF7 (assay: isothermal titration calorimetry; FGF7 titrated into the truncated FGFR2b extracellular fragment in the sample cell (Example 8)).
Description: The three types of the FGFR2b extracellular fragments and FGF7 (purchased from Millipore) were dialysed respectively with iTC buffer (0.15 mol/L NaCl and 5% glycerol in 20 mmol/L Na₂HPO₄-citrate buffer, pH 7.2). The proteins after the dialysis was centrifuged at 4° C. and 18000 rpm for 30 min before the iTC experiment.
400 ul 35 μmol/L of each of the three types of the FGFR2b extracellular fragments was added to the sample pool, respectively, and titrated with 200 μl 93 μmol/LFGF7 at 2 μl per time at a 2.5 min interval for a total of 20 drops.
For B1, the Ka was 8.74e+06 M⁻¹.
In the case of B2, the Ka is reported as 1.26e+08 M⁻¹.
Work on B3 yielded a Ka of 3.94e+07 M⁻¹.
